These results are taken from US7648964B2, “Use of lacritin in promoting ocular cell survival” (University of Virginia Patent Foundation, priority 2004, dated 2010).

Assay [1] has as its system human corneal epithelial (HCE) cell line. The assay can be described thus: TNF-α-induced cell death in HCE cells (MTT cell viability). The class given is cell-based. The settings on record: for protection from TNF-induced cell death (viability): 18 or 30 hours, FIG. 10. How it is done: (§1) Lacritin-induced proliferation and calcium signaling was studied in the human corneal epithelial (HCE) cell line. HCE cells were grown at 37° C. in DMEM F/12 supplemented with 10% FBS and 50 μg/ml gentamicin. Each experiment was done in a dose- and time-dependent manner using TNF-α (5-20 ng/ml) and lacritin (1-10 nM). Cell viability was measured spectrophotometrically at an absorbance of 570 nm using the MTT assay. Caspase-8 activity was detected fluorometrically by measuring cleavage of the fluorogenic substrate IETD-pNA at an excitation wavelength of 405 nm. Lacritin-induced cell proliferation was studied by H3-thymidine incorporation and via fluorescence-based detection of PKC, PLC and cAMP. Calcium signaling was detected by confocal microscopy of Fluo-4 loaded cells.

The test system of the next assay is caspase-8. Kind of assay: Caspase-8 activity in human corneal epithelial cells treated with TNF-α. The assay is classed as cell-based. The method, then: FIG. 12 graphically illustrates the ability of lacritin polypeptides to block TNFα induced caspase-8 activity in human corneal epithelial cells. The ordinate represents relative fluorescence units. White bars indicate 1 hour and diagonally-hatched bars indicate 6 hours.
as §1

The next assay deals with caspase-9. Kind of assay: Caspase-9 activity in human corneal epithelial cells treated with TNF-α. The assay is classed as cell-based. The settings on record: for effect on TNF-α-induced caspase-9 activity: lacritin polypeptides 10 nM. How it is done:
FIG. 13 graphically illustrates the ability of lacritin polypeptides (10 nM) to block TNFα induced caspase-9 activity in human corneal epithelial cells. The ordinate represents relative fluorescence units. White bars indicate 6 hours and diagonally-hatched bars indicate 9 hours.
Caspase-9 activity was measured in cells treated with various combinations of TNF-α, fragments of lacritin, and the PKC inhibitor Go6976. […] The PKC-α inhibitor Go6976 and C-25 fail to block this increase of the downstream initiator caspase-9.

Assay [2] concerns PKCα. Kind of assay: PKCα translocation in HSG cells (immunofluorescence, fractionation). The class given is cell-based, human. The following applies: 15 min after treatment. An excerpt: In order to dissect the molecular pathways leading to the cell survival by lacritin, protein kinases and transcriptional factors were studied by Western blotting and immunofluorescence microscopy.
Images were acquired at 2-3 s intervals using LaserSharp2000 software (Bio-Rad) and store on disc for later analysis.

The next assay has as its system NFATC1. Kind of assay: NFATC1 translocation in HSG cells (immunofluorescence). The assay is classed as cell-based, human. The following applies: HSG and corneal epithelial cells. The text has this:
In order to dissect the molecular pathways leading to the cell survival by lacritin, protein kinases and transcriptional factors were studied by Western blotting and immunofluorescence microscopy. […] On the other hand, there were increased activities of transcriptional factors such as nuclear factor of activated T-cells (NFAT) and NF-kappaB. In FIG. 4, translocation of PKC alpha and NFAT was detected by immunofluorescence coupled with confocal microscopic imaging. In resting HSG cells (left three images), PKC alpha distributes mainly in cytosol and membrane. Similarly, NFATc1 was also found to localize largely in cytosol. Cellular co-location of PKC alpha and NFATc1 is apparent upon merging the two immunofluorescent images, as the merged cy3 and FITC labels produce distinctive yellow color.
Images were acquired at 2-3 s intervals using LaserSharp2000 software (Bio-Rad) and store on disc for later analysis. For translocation assays, HSG cells […] phorbol 12-myristate 13-acetate, […], then washed with phosphate-buffered saline, formaldehyde-fixed, blocked with phosphate-buffered saline containing 1% bovine serum albumin and 10% goat serum, incubated with anti-PKCα (C-20) or anti-NFATC1 (mab 7A6) (both from Santa Cruz Biotechnology Inc.; Santa Cruz, Calif.) followed by secondary Cy3-, FITC- or Alexa488-labeled antibodies and confocal microscopic visualization (Bio-Rad Radiance2100).

The subject of assay [3] is human salivary ductal (HSG) cells. The assay can be described thus: 3H-thymidine uptake mitogenesis assay. The following applies: 10 nM; compared to intact lacritin. The assay is classed as cell-based. How it is done:
(§2) For phosphotyrosine blotting and mitogenesis assays, cells in serum-containing media were seeded overnight in 24-well plates at a density of 0.5×10^5 cells/mm^2 corresponding to 20-30% confluency after cell attachment, incubated in serum-free media without supplements for 24 h (phosphotyrosine) or washed with serum-free media without supplements three times (mitogenesis) and incubated with lacritin (1-1000 nM), or positive controls EGF (1.6 nM) and 10% fetal bovine serum, or negative controls bovine serum albumin or no additive in serum-free media without supplements for the indicated times (phosphotyrosine) or 30 h (mitogenesis). For phosphotyrosine assays, cells were extracted in 1% NP40 containing sodium vanadate (2 mg/ml), DTT (5 mg/ml), protease inhibitors, 50 mM HEPES, 100 mM NaCl, and 2 mM EDTA; then separated by 10% SDS PAGE, transferred and blotted. The following antibodies (Cell Signaling Technology, Beverly Mass.) were tested: antiphosphotyrosine antibody (P-Tyr-100), anti-phospho-PKC αβII, anti-PKCα, anti-phospho-PKCδ, anti-phospho-PKC (pan), anti-p44/42 MAPK, anti-phospho-Raf, anti-phospho-SAPK/JNK, anti-phospho-p38 Map kinase, anti-phospho-Raf, anti-phospho-Akt, anti-phospho-CaMKII, anti-phospho-MARCKS, or anti-tubulin (loading control). After washing, bound antibodies were detected with peroxidase-labeled secondary antibody and ECL. With the exception of at least nine proteins in the P-Tyr-100 blot (FIG. 1), none of the effectors tested above appeared to be phospho-activated during lacritin signaling (not shown). For mitogenesis (Hussaini et al., '00), [^3H]-thymidine (2 mCi/ml) was added for the next 6 h. Incorporation was stopped with ice-cold phosphate buffered saline and followed by addition of cold and then room temperature trichloracetic acid (10%) for 10 min each, washing of cells with phosphate buffered saline, solubilization with 1 N sodium hydroxide, neutralization with 1 N hydrochloric acid, addition of scintillation fluid and then quantitation in a scintillation counter. To deplete PKCα in HSG cells, a pool of four PKCα-specific siRNAs (100 nM) were transfected via LipofectAMINE 2000 in Opti-MEMI Reduced Serum Medium (Invitrogen, Grand Island N.Y.) without serum and antibiotics according to manufacturer's instructions. Each of the four siRNAs was also individually transfected. In negative controls, cells were transfected with a pool of four lamin-specific siRNAs (Upstate LLC, Charlottesville Va.; Dharmacon Inc, Lafayette Colo.). Seventy-two hours post-transfection, mitogenesis was assessed by co-addition of 10 […] lacritin and [^3H]-thymidine (2 mCi/ml) (Amersham, Piscataway N.J.) for 24 hrs. PKCα depletion was confirmed by Western blotting.

In assay [4] the test system is PKCα. Kind of assay: Phospho-PKCα blot of HSG cell lysates. The assay is classed as cell-based, human. How it is done:
as §2
We imaged PKCα in cells 15 min after treatment (FIG. 8). Nonmitogenic construct/fragment C-25 (10 nM) had no effect, leaving PKCa diffusely distributed throughout the cytoplasm. […] The phosphorylation state of PKCα influences its translocation site. Hyperphosphorylated PKCα becomes associated with the plasma membrane whereas hypophosphorylated or dephosphorylated PKCα is known to translocate to the perinuclear Golgi region. To determine if the latter is true and if so over what time course, we treated cells with lacritin, N-24 and C-25, and then blotted cell lysates for phospho-PKC ? (FIG. 8B). 10 nM lacritin promotes PKC ? dephosphorylation within 1 min of addition. This form is sustained for at least 15 min, but by 30 min has returned to baseline phosphorylation. Dephosphorylation triggered by increasing molar levels of lacritin or N-24 mirrored the proliferation response with optimal dephosphorylation at 10 nM. Non-mitogenic C-25 had no effect, whereas positive control 4β-phorbol 12-myristate 13-acetate-promoted hyperphosphorylation.

For a further assay, the system named is caspase-3. Kind of assay: Caspase-3 activity in human corneal epithelial cells treated with TNF. The settings on record: FIG. 11. The assay is classed as cell-based. The method, then: FIG. 11 graphically illustrates the ability of lacritin and fragments of lacritin to inhibit the ability of tumor necrosis factor (TNF) to regulate caspase-3 activity in human corneal epithelial cells. Go6976 is an inhibitor of protein kinase C. The ordinate represents relative fluorescence units. White bars indicate 3 hours and diagonally-hatched bars indicate 6 hours.
as §1

A further assay deals with MUC16. The assay can be described thus: MUC16 blot of human corneal epithelial cells. The following applies: 10 nM. The class given is cell-based. The text has this:
MUC16 is an important mucin on the ocular surface. Mucin contributes to the tear film, is important for wetting the ocular surface, and is reduced in Sjogren's syndrome patients. […] Cells were blotted for MUC16.

Entries after “also recorded” stand apart in the source; their conditions may differ.

TNF-α [reference compound]: the TNF-α-induced cell death in assay [1] (after 18 hr) stood at 32.2±2.6%; in assay [1] (after 30 hr), 73.7±10%. The “increase in caspase-8 activity” value in the assay on caspase-8 (TNF-α alone) is recorded as “three-fold increase; also recorded: multifold increase”. In the assay on caspase-9 (TNF-α alone), the “increase in caspase-9 activity” value is “multifold increase”.

B1: C-25: deletion of the 25 carboxy terminal amino acids of mature lacritin (SEQ ID NO:10) (protein)
chain: EDASSDSTGADPAQEAGTSKPNEEISGPAEPASPPETTTTAQETSAAAVQGTAKVTSSRQELNPLKSIVEKSILLTEQALAKAGKGMHGGVPGG
modifications: homo sapiens
As for B1, in the assay with PKCα [2], the PKCα translocation result is recorded as “had no effect”. In addition, the NFATC1 translocation result in the assay with NFATC1 is given as “had no effect”. Besides, the “mitogenic activity of deletion constructs” value in [3] is “inactive”. The “effect on PKCα phosphorylation” value with PKCα [4] is on record as “had no effect”. Further, the “protection from TNF-induced cell death (viability)” value in assay [1] was “no effect on viability loss”. Also, the “protection from cell death by TNF (caspase-3 activity)” value in the assay with caspase-3 is reported as “do not protect”. Besides, the “effect on TNF-α-induced caspase-8 activity” value with caspase-8 is “fail to block”. Besides, the “effect on TNF-α-induced caspase-9 activity” value with caspase-9 is “fail to block”. Besides, the MUC16 secretion entry in the assay on MUC16 is “inactive”.

B2: C-5: deletion of the 5 carboxy terminal amino acids of mature lacritin (SEQ ID NO:10) (protein, listed as Homo sapiens)
chain: EDASSDSTGADPAQEAGTSKPNEEISGPAEPASPPETTTTAQETSAAAVQGTAKVTSSRQELNPLKSIVEKSILLTEQALAKAGKGMHGGVPGGKQFIENGSEFAQKLLKKFSL
As for B2, the “mitogenic activity of deletion constructs” value in [3] is “active”. In [1], the “protection from TNF-induced cell death (viability)” value is on record as “protect”. Further, in the assay on caspase-8, the “effect on TNF-α-induced caspase-8 activity” value is listed as “blocked”. Besides, the “effect on TNF-α-induced caspase-9 activity” value in the assay with caspase-9 is “blocked”.
